Paper PMC2386126, “The Mycobacterium tuberculosis Rv2540c DNA sequence encodes a bifunctional chorismate synthase” (BMC Biochemistry, 2008)

Molecular target: the molecule itself
Test: SEC

B1: chorismate synthase from M. tuberculosis (enzyme)
chain: MLRWITAGESHGRALVAVVEGMVAGVHVTSADIADQLARRRLGYGRGARMTFERDAVTVLSGIRHGSTLGGPIAIEIGNTEWPKWETVMAADPVDPAELADVARNAPLTRPRPGHADYAGMLKYGFDDARPVLERASARETAARVAAGTVARAFLRQALGVEVLSHVISIGASAPYEGPPPRAEDLPAIDASPVRAYDKAAEADMIAQIEAAKKDGDTLGGVVEAVALGLPVGLGSFTSGDHRLDSQLAAAVMGIQAIKGVEIGDGFQTARRRGSRAHDEMYPGPDGVVRSTNRAGGLEGGMTNGQPLRVRAAMKPISTVPRALATVDLATGDEAVAIHQRSDVCAVPAAGVVVETMVALVLARAALEKFGGDSLAETQRNIAAYQRSVADREAPAARVSG
notes: also called MtCS; CS
  stoichiometry N: 2
